The values that follow come from the DeepSol protein solubility set.

This data set in a line: soluble on expression in E. coli; label from the status in PepcDB or PDB records.
With “MEAKLQVGVLGFGTVGSGVIHILEEHQEKISQVTGYHISVKKVLVRDLEKNRRYETKGFELTTNPSDVLDDPEIAVVVEVMGSITTAREYILQALKAGKHVVTANKDLIALHGDELVAVAQANNCDLFYEASVAGGIPILRTIVNSLAADKIQKVMGIVNGTTNFMLTKMTTEKK”, the “soluble on expression in E. coli” value is on record as “not soluble”.
In the case of “MEALADVGVLASWSPLHKQVEVIDYYPDGRPHHVRATVKILGLVDKEVLEYHWGPDWVCWDADQTFQQHGQHIEYTVKPEGVDRARVRFDITVEPAGPIPGFIVKRASEHVLDAAAKGLQKLIAGAGDQGNAKSLEHHHHHH” it was “not soluble”; in that of “MEALIAYSGRRFARPHYYANAHERDEVDIVPVQMAMHDARAAGTGIDREGFQIVKHTSAVTDFADREQVARIHMREIEELVRAETGADMVHVGAPGLLRFSEKSGRAGSLNNSMPARFAHIDISDRTAQAFGERGANGRPFVRCAAYNVWRAISPPPQDVPLAFCDARSLAPGDLIEADAVFDEPGKPEWSFEGLVVAHNPAHRWYFFPDMRIDEAVLFKTNDSDPARAHHVPHVAFDLPDCPADAPPRVSIEMRATAYWWALEHHHHHH”, “soluble”.
With “MEALVVVHKVASEGGRRPKTTVSDESGSHSREKGKSFQVKDSPENNYATGKVDSLERSHFSSSYNQERRQSEEQRR” the entry was “soluble”; with “MEASRLLLLEDSSVDAELIEDQLSRLSPPPAVTRAVGKASFIEALEKQQFDIILADFSLPDFDGMSALDLVMRTRPDTPFIFVSGILGEDAAIDAFRRGATDYVLKQRLVRLPSAVERALAEAREKQERKRAELHKELLVRELSHRVKNTMAMVVSIIRRTAKGSTSIKDYQERLVARVSALAESHALLFQSNWGETNLRDVVKRAIEPHNTFASRVELEGPDGVHVSPKSALALGMILHELATNAQKYGSLSGANGKVEVFWKKILNGDGNDCIDLRWQESGGPPVSVPQDTGFGTTLITRGVQYELQAESEIRYDPDGLQYRVIFPLD”, “not soluble”.
Regarding “MEAVKTFNSELYSLNDYKPPISKAKMTQITKAAIKAIKFYKHVVQSVEKFIQKCKPEYKVPGLYVIDSIVRQSRHQFGQEKDVFAPRFSNNIISTFQNLYRCPGDDKSKIVRVLNLWQKNNVFKSEIIQPLLDMAAALEHHHHHH”, the “soluble on expression in E. coli” value is “soluble”.
In the case of “MEAVVVEREAKGMKEIAIQEKDLTLQWRGNTGKLVKVRLKNTRAMEMWYNKQITEENIQEITTLNIIKNGKSLALEVYPEKSIYVKPNLGRINVPVFFIKTPINRGVFEEIFGETLKA”, the “soluble on expression in E. coli” value is “soluble”.
With “MEDDDLLPLSALQHYLYCPRQCALIHLEQQWEDNAQTAEGRLLHERADKPAMETRRGVRTASAMALASPRLGIAGVADIVEFHDWSDGERAYPVEYKRGRPKAHRADEVQLCAQALCLEDMLGAAIPEGALYYGKTRRRRPVAFDNALRRLTLETIAAARAMFDSRQTPRMGYEARRCDACSLLERCQPRLLDRAQSVDQWLKQQWDALEHHHHHH” the entry was “not soluble”.
Regarding “MEDGDSAEAFRAFAAGVALQREDPSPLWVQLKNRIEHAILDGTLPENARLPSEQAMCSMFDLSRPVIRNALQALAGEGRVIKQPRKGMFVAPRAPELAFMTSALGVFDDLSAKGYKVTVKTYEFGLHPANEDERRVFKLPEGFQVIRALRVYHANETPLTHTLISLPAHRLPGFEKLDMEGRSIFGTIRELYGLTVARADRWLKGAIVPPEVAARMGVPPGGAMIAIESVAYDHDGNALEYYRAYYNSEVAPIHVATDAH”, the “soluble on expression in E. coli” value is listed as “not soluble”.
With “MEDKNSVIVFKNVSFQYQSDASFTLKDVSFNIPKGQWTSIVGHNGSGKSTIAKLMIGIEKVKSGEIFYNNQAITDDNFEKLRKDIGIVFQNPDNQFVGSIVKYDVAFGLENHAVPYDEMHRRVSEALKQVDMLERADYEPNALSGGQKQRVAIASVLALNPSVIILDEATSMLDPDARQNLLDLVRKVKSEHNITIISITHDLSEAMEADHVIVMNKGTVYKEGTATEIFDNAEELTRIGLDLPFPIKINQMLGHQTSFLTYEGLVDQL” the entry was “not soluble”.
With “MEDNRLVINRHRATQVLFQLVNISTQLSYQFFCKDSVLLLRIVQKIQSNSWLTSCCARKTVTTLRIKTQPANNKH” the entry was “not soluble”; with “MEDPVTGPEEVSGQEQGSLTVQCRYTSGWKDYKKYWCQGVPQRSCKTLVETDASEQLVKKNRVSIRDNQRDFIFTVTMEDLRMSDAGIYWCGITKGGLDPMFKVTVNIGPVPT”, “soluble”.
